From US20220259593A1, “CONTROL OF MAMMALIAN GENE DOSAGE USING CRISPR” (The Regents of the University of California, priority 2019, published 2022)

System: K562 CRISPRi cells
Experiment: Constant region variant library pooled growth screen, K562
Format: cell-based, human
Conditions: sgRNA constant region variants; activity relative to the original, un-modified constant region cr995
How it was run: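 Pooled library transduced into K562 CRISPRi cells in duplicate, puromycin-selected, grown at >2000× coverage and sampled after 4 to 8 days. Phenotypes per targeting sequence:constant region pair were normalized to the unmodified-scaffold pairing to give relative activity.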

| Molecule | Mean relative activity |
| --- | --- |
| cr585 (nucleic acid, listed as DNA, chemistry not fully specified) guide: GTTTAAGAGCTAAGCTGGAAACAGCATAGCAAGTTTAAATAAGGCTAGTCCGTTATCAACTTGAAAAAGTGGCTCCGAGTCGGAGCT | 1.056 |
| cr506 (nucleic acid, listed as DNA, chemistry not fully specified) guide: GTTTAAGAGCTAAGCTGGAAACAGCATAGCAAGTTTAAATAAGCCTAGTGCGTTATCAACTTGAAAAAGTGGGACCGAGTCGGTCCT | 0.8078 |
| cr805 (nucleic acid, listed as DNA, chemistry not fully specified) guide: GTTTAAGAGCTAAGCTGGAAACAGCATAGCAAGTTTAAATAGGGCTAGTCCGTTATCAACTTGATAAAGTGGCACCGAGTCGGTGCT | 0.7927 |
| cr484 (nucleic acid, listed as DNA, chemistry not fully specified) guide: GTTTAAGAGCTAAGCTGGAAACAGCATAGCAAGTTTAAATAAGGCTAGTCCGTTATCAACTTGAAAAAGTGCCACCAAGTTGGTGGT | 0.7978 |
| cr876 (nucleic acid, listed as DNA, chemistry not fully specified) guide: GTTTAAGAGCTAAGCTGGAAACAGCATAGCAAGTTTAAATAAGGCTAGTCCGTTATCAACTTGAAAAAGTGGCACCGAGTCAGTGCT | 0.8037 |
| cr164 (nucleic acid, listed as DNA, chemistry not fully specified) guide: GTTTAAGAGCTAAGCTGGAAACAGCATAGCAAGTTTAAATAAGGCTAGTCCGTTATCAACTTGAAAAAGTGGCCCCGAGTCGGTGCT | 0.7776 |
| cr443 (nucleic acid, listed as DNA, chemistry not fully specified) guide: GTTTAAGAGCTAAGCGGGAAACAGCATAGCAAGTTTAAATAAGGCTAGTCCGTTATCAACTTGAAAAAGTGGCACCGAGTCGGTGCT | 0.7774 |
| cr818 (nucleic acid, listed as DNA, chemistry not fully specified) guide: GTTTAAGAGCTAAGCTGGAAACAGCATAGGAAGTTTAAATAAGGCTAGTCCGTTATCAACTTGAAAAAGTGGCACCGAGTCGGTGCT | 0.7972 |
| cr652 (nucleic acid, listed as DNA, chemistry not fully specified) guide: GTTTAAGAGCTAAGCTGGAAACAGCATCGCAAGTTTAAATAAGGCTAGTCCGGTATCAACTTGGAAAAGTGGCACCGAGTCGGTGCT | 0.7959 |
| cr219 (nucleic acid, listed as DNA, chemistry not fully specified) guide: GTTTAAGAGCTAAGCTGGAAACAGCATAGCAAGTTTAAATAAGCCTAGTGCGTTATCAACTTGAGAAAGTGGCACCGAGTCGGTGCT | 0.7779 |
| cr104 (nucleic acid, listed as DNA, chemistry not fully specified) guide: GTTTAAGAGCTAAGCTGGAAACAGCATAGCAAGTTTAAATAAGGCTAGTCCGTTATCAACTTGAAAAAGTGGAACCGAGTCGGTGCT | 0.8063 |
| cr550 (nucleic acid, listed as DNA, chemistry not fully specified) guide: GTTTAAGAGCTAAGCTGGAAACAGCATAGCAAGTTTAAATAAGGCTAGTCCGTTATCAACTTGAAAAAGTGGCACAAAGTTTGTGCT | 0.7679 |
| cr215 (nucleic acid, listed as DNA, chemistry not fully specified) guide: GTTTAAGAGCTAAGCTGGAAACAGCATAGCAAGTTTAAATAAGGCTAGTCCGTTATCAACTTGAAAAAGTAGCACCGAGTCGGTGCT | 0.8059 |
| cr516 (nucleic acid, listed as DNA, chemistry not fully specified) guide: GTTTAAGAGCTAAGCTGGAAACAGCATAGCAAGTTTAAATAAGCCTAGTGCGTTATCAGCTTGAAAAAGCGGCACCGAGTCGGTGCT | 0.8009 |
| cr886 (nucleic acid, listed as DNA, chemistry not fully specified) guide: GTTTAAGAGCTAAGCTGGAAACAGCATAGCAAGTTTAAATAAGGCTAGTCCGTTATCAAATAGAAATATTGGCAGCGAGTCGCTGCT | 0.7791 |
| cr449 (nucleic acid, listed as DNA, chemistry not fully specified) guide: GTTTAAGAGCTAAGCTGGAAACAGCATAGCAAGTTTAAATAAGCCTAGTGCGTTATCAACTTGAAAAAGTGGCAGCGAGTCGCTGCT | 0.7698 |

| Molecule | Mean relative activity |
| --- | --- |
| cr380 (nucleic acid, listed as DNA, chemistry not fully specified) guide: GTTTAAGAGCTAAGCTGGAAACAGCATAGCAAGTTTAAATAAGGCTAGTCCGTTATCAACTTGAGAAAGTGGTACCGAGTCGGTACT | 1.055 |
| cr879 (nucleic acid, listed as DNA, chemistry not fully specified) guide: GTTTAAGAGCTAAGCTGGAAACAGCATAGCAAGTTTAAATAAGGCGAGTCCGTCAGCAACTTGAAAAAGTGGCACCGAGTCGGTGCT | 0.798 |
| cr859 (nucleic acid, listed as DNA, chemistry not fully specified) guide: GTTTAAGAGCTAAGCTGGAAACAGCATACCAAGTTTAAATAAGGCTTGTCCGTTATCAACTTGAGAAAGTGGCACCGAGTCGGTGCT | 0.7625 |
| cr199 (nucleic acid, listed as DNA, chemistry not fully specified) guide: GTTTAAGAGCTAAGCTGGAAACAGCATAGCAAGTTTAAATAAGGCTAGTCCGTTATCAACTTGAGAAAGTGGCACCTAGTAGGTGCT | 0.7949 |
| cr508 (nucleic acid, listed as DNA, chemistry not fully specified) guide: GTTTAAGAGCTAAGCTGGAAACAGCATAGCAAGTTTAAATAAGGCCAGTCCGTGATCAACTTGAAAAAGTGGCACCGAGCCGGTGCT | 0.7636 |
| cr733 (nucleic acid, listed as DNA, chemistry not fully specified) guide: GTTTAAGAGCTAAGCTGGAAACAGCATAGCAAGTTTAAATAAGGCTAGTCCGTTATCAACTTGAAAAAGTGGCAAAGAGTCTTTGCT | 0.807 |
| cr394 (nucleic acid, listed as DNA, chemistry not fully specified) guide: GTTTAAGAGCTAAGCTGGAAACAGCATAGCAAGTTTAAATAAGGCTAGTCCGTTATCAACTTGAAACAGTGGCACCGAGTCGGTGCT | 1.055 |
| cr712 (nucleic acid, listed as DNA, chemistry not fully specified) guide: GTTTAAGAGCTAAGCTGGAAACACCATAGCAAGTTTAAATAAGGCTAGTCCGTTATCAACTTGAAAAAGTGGCACCGAGTCGGTGCT | 0.7744 |
| cr905 (nucleic acid, listed as DNA, chemistry not fully specified) guide: GTTTAAGAGCTAAGCTGGAAACAGCATAGCAAGTTTAAATAAGGCTAGTCCGTTATCAACTTGAAAAAGTGATACCAAGTTGGTATT | 0.8019 |
| cr119 (nucleic acid, listed as DNA, chemistry not fully specified) guide: GTTTAAGAGCTAAGCTGGAAACAGCATAGCAAGTTTAAATAAGGCTAGTCCGTTATCAACTTGAAAAATTGGCACCGAGTCGGTGCT | 0.7902 |
| cr931 (nucleic acid, listed as DNA, chemistry not fully specified) guide: GTTTAAGAGCTAAGCTGGAAACAGCATAGCAAGTTTAAATAAGGCTAGTCCGTTATCAACTTGAAAAAGTGGCCCTGAGTCAGGGCT | 0.8044 |
| cr819 (nucleic acid, listed as DNA, chemistry not fully specified) guide: GTTTAAGAGCTAAGCTGGAAACAGCATCGCAAGTTTAAATAAGGCTGGTCCGGTATCAACTTGAAAAAGTGGCACCGAGTCGGTGCT | 0.7667 |
| cr684 (nucleic acid, listed as DNA, chemistry not fully specified) guide: GTTTAAGAGCTAAGCTGGAAACAGCATAGCAAGTTTAAATAAGGCTAGTCCGTTATCAACTTGAAAAAGTGGCACTAAGTTAGTGCT | 0.7672 |
| cr477 (nucleic acid, listed as DNA, chemistry not fully specified) guide: GTTTAAGAGCTAAGCTGGAAACAGCATAGCAAGTTTAAATAAGGCTAGTCCGTTACCAACTTGAAAAAGTGGCACCGAGTCGGTGCT | 1.055 |
| cr558 (nucleic acid, listed as DNA, chemistry not fully specified) guide: GTTTAAGAGCTAAGCTGGAAACAGCATAGCAAGTTTAAATAAGGCTAGTCCGTTATCAACTTGAAAAAGTGGCTCGGAGTCCGAGCT | 0.7679 |
